Reference: patent publication US20120040894A1 (REGENTS OF THE UNIVERSITY OF CALIFONIRA, published 2012)
Numbered stars: 1 amine (or outer) side, 2 acyl side, 3 side chain; on linkers, the order of the positions; unused ones are H or OH. Square brackets hold non-standard residues; d marks the D form. Ends that are not written are not given here. Cys(S-tBut) = S-t-butylthio-L-cysteine, CC(C)(C)SSC[C@H](N[*:1])C(=O)[*:2]; Cys(tBut) = S-t-butyl-L-cysteine, CC(C)(C)SC[C@H](N[*:1])C(=O)[*:2]

T1: ferroportin tagged at the C-terminus with green fluorescent protein (ECR293/Fpn-GFP cells)
T1 sequence (Q9NP59 whole entry, species assumed, looked up): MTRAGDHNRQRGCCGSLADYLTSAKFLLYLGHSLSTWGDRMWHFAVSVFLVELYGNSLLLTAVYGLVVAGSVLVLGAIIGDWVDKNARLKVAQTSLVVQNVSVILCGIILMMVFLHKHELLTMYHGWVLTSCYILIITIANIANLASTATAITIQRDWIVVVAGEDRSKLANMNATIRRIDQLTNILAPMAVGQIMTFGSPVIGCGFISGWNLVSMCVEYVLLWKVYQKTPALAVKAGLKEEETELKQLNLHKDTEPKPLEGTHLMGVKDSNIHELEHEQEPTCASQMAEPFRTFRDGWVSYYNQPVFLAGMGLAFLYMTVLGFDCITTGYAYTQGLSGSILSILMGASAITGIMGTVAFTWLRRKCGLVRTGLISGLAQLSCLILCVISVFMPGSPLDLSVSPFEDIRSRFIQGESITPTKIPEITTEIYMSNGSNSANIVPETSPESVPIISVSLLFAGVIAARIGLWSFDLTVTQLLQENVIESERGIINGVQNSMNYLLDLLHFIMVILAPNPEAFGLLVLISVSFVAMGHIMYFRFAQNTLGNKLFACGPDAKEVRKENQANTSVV

B1: Hep25 (peptide)
peptide: DTHFPICIFCCGCCHRSKCGMCCKT
modifications: disulfide (positions not given here); also: 4 disulfide bonds, pairing not given here
B2: Hep10 (Hep1-10 C7A) (peptide)
peptide: DTHFPIAIFC-NH2
B3: Hep9F4A (peptide)
peptide: DTHAPICIF-NH2
B4: Hep9C7-SStBut (peptide)
peptide: DTHAPI[Cys(S-tBut)]IF-NH2
modifications: N-terminus assumed
SMILES: CC[C@H](C)[C@H](NC(=O)[C@H](CSSC(C)(C)C)NC(=O)[C@@H](NC(=O)[C@@H]1CCCN1C(=O)[C@H](C)NC(=O)[C@H](Cc1c[nH]cn1)NC(=O)[C@@H](NC(=O)[C@@H](N)CC(=O)O)[C@@H](C)O)[C@@H](C)CC)C(=O)N[C@@H](Cc1ccccc1)C(N)=O
B5: Hep9C7-tBut (peptide)
peptide: DTHAPI[Cys(tBut)]IF-NH2
modifications: N-terminus assumed
SMILES: CC[C@H](C)[C@H](NC(=O)[C@H](CSC(C)(C)C)NC(=O)[C@@H](NC(=O)[C@@H]1CCCN1C(=O)[C@H](C)NC(=O)[C@H](Cc1c[nH]cn1)NC(=O)[C@@H](NC(=O)[C@@H](N)CC(=O)O)[C@@H](C)O)[C@@H](C)CC)C(=O)N[C@@H](Cc1ccccc1)C(N)=O
B6: Hep9-C7A (peptide)
peptide: DTHFPIAIF-NH2
B7: Hep9-C7S (peptide)
peptide: DTHFPISIF-NH2
B8: Cyc-3 (peptide)
peptide: HFPICIF
modifications: not fully specified; C-terminal F carries R1 = -CONH2-CH2-CH2-S; disulfide cyclized (double underlining lost)
B9: Pr12 (peptide)
peptide: FICIPFHTD
modifications: retroinverted: all D-amino acids; C-terminal amide
B10: riHep7ΔDT (peptide)
peptide: [dF][dI][dC][dI][dP][dF][dH]-NH2
modifications: N-terminus assumed
SMILES: CC[C@@H](C)[C@@H](NC(=O)[C@H](N)Cc1ccccc1)C(=O)N[C@H](CS)C(=O)N[C@@H](C(=O)N1CCC[C@@H]1C(=O)N[C@H](Cc1ccccc1)C(=O)N[C@H](Cc1c[nH]cn1)C(N)=O)[C@H](C)CC
B11: Pr23 (peptide)
peptide: FICIPFHTD
modifications: N-terminal R2 = Chenodeoxycholate-(PEG11)-; retroinverted (D-amino acids); C-terminal amide
B12: Pr24 (peptide)
peptide: FICIPFHTD
modifications: N-terminal R3 = Ursodeoxycholate-(PEG11)-; retroinverted (D-amino acids); C-terminal amide
B13: Pr27 (peptide)
peptide: FICIPFHTD
modifications: N-terminal R4 = Palmitoyl-(PEG11)-; retroinverted (D-amino acids); C-terminal amide
B14: Pr28 (peptide)
peptide: FICIPFHTD
modifications: not fully specified; N-terminal R5 = 2(Palmitoyl)-Dap(PEG11)-, Dap = diaminopropionic acid; retroinverted (D-amino acids); C-terminal amide
B15: Hep4 (Hep4-7) (peptide)
peptide: FPIC-NH2
B16: Hep5 (Hep3-7) (peptide)
peptide: HFPIC-NH2
B17: Hep6 (Hep3-8) (peptide)
peptide: HFPICI-NH2
B18: Hep7ΔDT (Hep3-9) (peptide)
peptide: HFPICIF-NH2
B19: Hep7 (Hep1-7) (peptide)
peptide: DTHFPIC-NH2
B20: Hep8 (Hep1-8) (peptide)
peptide: DTHFPICI-NH2

What follows are binders tested against T1, ferroportin tagged at the C-terminus … (assay: cell-based or functional assay).
B1 was tested, and the “EC50 (nM); loss of fluorescence of Fpn-GFP cells, flow cytometry” value (“EC50 (nM); loss” below) was 10 nM. For B2, the “EC50 (nM); loss” value was 100 nM. With B3 the “EC50 (nM); loss” value was > 3000 nM. With B4 the “EC50 (nM); loss” value was 700 nM. B5 was tested, and the “EC50 (nM); loss” value was > 10000 nM. B6 was tested, and the “EC50 (nM); loss” value was > 10000 nM. In the case of B7, the “EC50 (nM); loss” value is reported as > 10000 nM. B8 was tested, and the “EC50 (nM); loss” value was > 10000 nM. B9 was tested, and the “EC50 (nM); loss” value was 900 nM. With B10 the “EC50 (nM); loss” value was 150 nM. With B11 the “EC50 (nM); loss” value was 100 nM. With B12 the “EC50 (nM); loss” value was 1000 nM. For B13, the “EC50 (nM); loss” value was 20 nM. In the case of B14, the “EC50 (nM); loss” value is reported as 3000 nM. B15 was tested, and the “EC50 (nM); loss” value was > 10000 nM. With B16 the “EC50 (nM); loss” value was > 10000 nM. For B17, the “EC50 (nM); loss” value was 1000 nM. With B18 the “EC50 (nM); loss” value was 700 nM. B19 was tested, and the “EC50 (nM); loss” value was > 10000 nM. In the case of B20, the “EC50 (nM); loss” value is reported as 2000 nM.

Molecular target: T1, ferroportin tagged at the C-terminus …
Assay: cell-based or functional assay
Remark: another data set of the same source
For B1, the “EC50; loss of fluorescence of Fpn-GFP cells” value was 5 to 15 nM.
